The text below walks through data of the supplement of paper PMC9170038.

The series relates to K4 kissing-loop RNA reporter. Kind of series: apparent KD of K4 kissing-loop reporter; higher = weaker reporter binding. To be noted: Eterna round: R107. On the procedure:
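RNA-MaP round R107: designed RNA switches with theophylline, tryptophan, arginine or FMN aptamers are transcribed on-chip within common flanks. They are titrated with a labelled K4 kissing-loop RNA reporter in RNA-MaP buffer (100 mM Tris pH 7.5, 80 mM KCl, 4 mM MgCl2), without ligand or with the indicated ligand. Median apparent KD per design.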

Setting [1] is: input ligand: theophylline 20 uM.
[2] abbreviates: input ligand: tryptophan 2.4 mM.
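Also: bound reporter read as fluorescence of individual clusters on recovered sequencing chips by microscopy, with normalized cluster intensities fitted with a binding model.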

On to “UGAUAGGACAGAAGGAGCGGAAGCUAGUCAAAGACUAGCAAACGUUAAACAGGAGUGAUGUUCCAGGUAGGUCGCUGUCCUAUCU [ArgBX 23 #SwitchBubble #StaticStem]”, for which the “apparent KD of K4 kissing-loop reporter” value stood at 124 nM (input ligand: FMN 200 uM); 115 nM (input ligand: arginine 13.2 mM); 126 nM (input ligand: none); 133 nM under setting [1]; 119 nM under setting [2].
Take “UAAUCCUAGUGAUAAUUAUCAAGUGGUGGGCGAGGACCGGUACGGCCGCCACUCGAAUAUGCAGUGAUGUUGUAAUCCGGAUAAU [Exclusion - Tryptophan A (Freestyle 7)]”: the “apparent KD of K4 kissing-loop reporter” value by setting is: (input ligand: FMN 200 uM) 639 nM; (input ligand: arginine 13.2 mM) 636 nM; (input ligand: none) 534 nM; under setting [1], 715 nM; under setting [2], 441 nM.
For “AGGAGCGUGGGAUGGAAAUCGCACGCUCCUCGAGGACCGGUACGGCCGCCACUCGCUCGCGCCGAGUGAUGUUCGGCCGGCGAAC [#2 Same State - Tryptophan A Attempt #11 (HarryS)]”, in that order: 131 nM, 111 nM, 451 nM, 178 nM and 482 nM.
Turning to “GCAAUUCUCAGUGAUGUUGAGUAAUCGGAAGGAGCGCGUGAAAACGCAGGUAGGUCGCCGAAACAUGAAGUAUCUUCGUGUUUGC [Arginine A K4 24]”, the “apparent KD of K4 kissing-loop reporter” value was 180 nM (input ligand: FMN 200 uM); 190 nM (input ligand: arginine 13.2 mM); 215 nM (input ligand: none); 226 nM under setting [1]; 168 nM under setting [2].
Regarding “CCGAAGAACCAGUGAUGUUGGUUGACUAGACAGGAUAUGAGCAACAUCAGAAGGGUCUGGCUUCGGGAGUAGGUCGCGCUGACCC [Diarrebi]”, the “apparent KD of K4 kissing-loop reporter” value (input ligand: FMN 200 uM) is 482 nM; the “apparent KD of K4 kissing-loop reporter” value (input ligand: arginine 13.2 mM) was found to be 231 nM; the “apparent KD of K4 kissing-loop reporter” value (input ligand: none) worked out at 624 nM; the “apparent KD of K4 kissing-loop reporter” value under setting [1] was 1260 nM; the “apparent KD of K4 kissing-loop reporter” value under setting [2] came out at 231 nM.
“GUCCCGAGUGAUGUUCGGGUCGUUUGGGAAGGAGCGCCCGGAAGGGCAGGUAGGUCGCCCGGACCGUGCAGGUAACUGUGCGGCC [#2 Same State - Arginine A Attempt #18 (HarryS)]”: the “apparent KD of K4 kissing-loop reporter” value runs as follows: (input ligand: FMN 200 uM) 176 nM; (input ligand: arginine 13.2 mM) 146 nM; (input ligand: none) 181 nM; under setting [1], 196 nM; under setting [2], 178 nM.
Turning to “ACGGGCGGCUGAAGGAGCGGGCGGGCCCGAGUGAUGUUCGGGUGGGCCGUGAGGCCCGGAGCCCAGGUAGGUCGCGGUUCCGUCC [#2 Same State - Arginine B Attempt #21 (HarryS)]”, the “apparent KD of K4 kissing-loop reporter” value is, setting by setting: (input ligand: FMN 200 uM) 135 nM; (input ligand: arginine 13.2 mM) 104 nM; (input ligand: none) 182 nM; under setting [1], 171 nM; under setting [2], 164 nM.
On the same counts, the results for “AUCGUUGUCUGAGGAUAUCGGUUAACUGUAGUGAUGUUACAGAAAAUUCAUAUAAUAUUUUCUAUUCGAGAAGGCAGACUACGUA [JR_ExcFMNB_Sub018]” are 205 nM, 157 nM, 167 nM, 178 nM and 177 nM.
For “CCAACAACGAGUGAUGUUCGUUGAUCUGAAGGAGCGUCAAUAAUGACAGGUAGGUCGCAGAUAAUUGGAUAUAGGGCAAUAGCUC [Same State Arginine A GF13]”, in that order: 109 nM, 116 nM, 125 nM, 115 nM and 102 nM.
For “UGGAUAUCGUUUAGUCUGGUGAGCUCAGAUACCAGACUAGCGAUGGUCCCUUGGCAGCUGAUUACGAUUGAGUGAUGUUCAAUCG [Theo A Ex t9c]”, the “apparent KD of K4 kissing-loop reporter” value (input ligand: FMN 200 uM) came out at 168 nM; the “apparent KD of K4 kissing-loop reporter” value (input ligand: arginine 13.2 mM) worked out at 152 nM; the “apparent KD of K4 kissing-loop reporter” value (input ligand: none) stood at 172 nM; the “apparent KD of K4 kissing-loop reporter” value under setting [1] was 160 nM; the “apparent KD of K4 kissing-loop reporter” value under setting [2] came to 158 nM.
On the same counts, the results for “AGGAGUGAUGUUCCUACAUAGACGGUCCAACGAGGACCGGUACGGCCGCCACUCGCGACCCAGUGAUGUUGGGAUUCACCGUACA [Exclusion Tryptophan A Gf 14]” are 723 nM, 753 nM, 818 nM, 836 nM and 812 nM.
“AACUGUCAAGGACAACAUUACUGAGGUGAUACCAGCAUCGAAAGAUGCCCUUGGCAGCACCAACUUGCAGUGAUGUUGCAAGUAA [Design6]”: the “apparent KD of K4 kissing-loop reporter” value turned out to be 212 nM (input ligand: FMN 200 uM); 184 nM (input ligand: arginine 13.2 mM); 212 nM (input ligand: none); 279 nM under setting [1]; 214 nM under setting [2].
Take “AAGUCUCGUUAAUUCGAGGUUACGAUCGAUACCAGUAGCGAGAGGUACCCUUGGCAGCGAAGUGAGUGAUGUUCAUGAAAGAAGA [KL-XTheoA12]”: the “apparent KD of K4 kissing-loop reporter” value was determined as 78.5 nM (input ligand: FMN 200 uM); 119 nM (input ligand: arginine 13.2 mM); 92.7 nM (input ligand: none); 131 nM under setting [1]; 78 nM under setting [2].
Regarding “AGGAGCUGUCGACAAAAGUCGACAUAAACCAAGGAUAUGACGAAAGUCAGAAGGUGGUCAUAAGACCAGUGAUGUUGGUAGCUCC [FmnA 10 #SwitchBubble #K4Late]”, the “apparent KD of K4 kissing-loop reporter” value turned out to be 952 nM (input ligand: FMN 200 uM); 259 nM (input ligand: arginine 13.2 mM); 466 nM (input ligand: none); 488 nM under setting [1]; 338 nM under setting [2].
For “AGCAUUAUCAGAAGGAGCGUGUAUAAAUCAAUAGUAUUGUAUUCGAGUGAUGUUCGUAAUACACAGGUAGGUCGCUGAUAUUGCA [JR_ExcArginiB_Sub002]”, in that order: 182 nM, 172 nM, 170 nM, 175 nM and 161 nM.
On the same counts, the results for “GUUCGGAUGCGGGAUACCAGCGUACCGAGCAAGCUUCGGGUAGUGAUGUUAUCUGAAUUACGCCCUUGGCAGCCCGCAUCCGGGC [clock_plus]” are 265 nM, 234 nM, 285 nM, 212 nM and 256 nM.
“GAUCUGAACGAAAGUUCGGAUCAGUCCGAUACCAGUAUGGAUUCAUACCCUUGGCAGCGGAAAUCUGCUAUGGAGUGAUGUUCCU [Theophylline A K4 13]”: the “apparent KD of K4 kissing-loop reporter” value runs as follows: (input ligand: FMN 200 uM) 362 nM; (input ligand: arginine 13.2 mM) 280 nM; (input ligand: none) 413 nM; under setting [1], 396 nM; under setting [2], 274 nM.
On the same counts, the results for “CCUAUCUCAUACGAUACCAGUCAACGAGUGAUGUUCGAAUAAAUAAAUUUGCCAAAUAAUGACCCUUGGCAGCGUAUGGGAUAGG [Ex Theophylline B K4 15]” are 299 nM, 313 nM, 329 nM, 302 nM and 247 nM.
Regarding “UAAUGCAUGACGGCCGCCACUAGUACUGGAGUGAUGUUGUGGUACGGCGGCAGUUUAGGGUGGACUAGGACCGGGUCAUGCAUAU [KL-XTryp-B10 #analogue]”, the “apparent KD of K4 kissing-loop reporter” value (input ligand: FMN 200 uM) came out at 461 nM; the “apparent KD of K4 kissing-loop reporter” value (input ligand: arginine 13.2 mM) came to 314 nM; the “apparent KD of K4 kissing-loop reporter” value (input ligand: none) is 339 nM; the “apparent KD of K4 kissing-loop reporter” value under setting [1] is 305 nM; the “apparent KD of K4 kissing-loop reporter” value under setting [2] was 356 nM.
For “CGCGCGCGCGCGCGCGCGCGCGCGAAUGAUACCAGUAUAUAAGAAUACCCUUGGCAGCAUAAGAAAGAUAUAGUGAUGUUGUAUA [SSTheophA.B]”, in that order: 285 nM, 150 nM, 269 nM, 422 nM and 231 nM.
“AAAAUAAACCAGUGAUGUUGGUGUCUAGAUACCAGCGACGAAAGUCGCCCUUGGCAGCUAUGGACGUACAAAAUAAGUACGUCCU [MatMod 6 - Jieux - Same State - Theophylline A]”: the “apparent KD of K4 kissing-loop reporter” value is 647 nM (input ligand: FMN 200 uM); 459 nM (input ligand: arginine 13.2 mM); 617 nM (input ligand: none); 679 nM under setting [1]; 612 nM under setting [2].
